1 molecule from publication PMC3652662 (Journal of molecular recognition : JMR, 2009) can be followed below.

Starred links: 1 amine or outer side, 2 acyl side, 3 side chain; linkers in the order of their positions; H or OH if unused. Non-standard residues stand in square brackets, D forms with d. No end group written: not given here. X1 = (2S,4S)‑4‑(4-ferrocenyl-1H-1,2,3-triazol-1-yl)pyrrolidine‑2‑carboxylic acid, O=C([C@@H]1C[C@H](n2cc(-[c-]3cccc3)nn2)CN1[*:1])[*:2].[Fe+2].c1cc[cH-]c1

One assay deals with HIV-1_(92UG037-08) gp120 (HIV-1 (strain 92UG037-08, clade A)). Briefly: SPR.
In another assay the target is HIV-1_(SF162) gp120 (HIV-1 (strain SF162, clade B)). Briefly: SPR. Background: SPR reads the build-up and loss of mass on a sensor chip optically.

In general, Kd refers to the free concentration of one partner at which half of the binding sites on the other are occupied at equilibrium, for simple one-to-one binding. As to RINNI[X1]WSEAMM-NH2 [HNG-156, ferrocene triazole peptide conjugate], the Kd with HIV-1_(92UG037-08) gp120 was found to be 16.3 nM; with HIV-1_(SF162) gp120, 9 nM.
